Measured values published in PMC4652220, “Imaging and energetics of single SSB-ssDNA molecules reveal intramolecular condensation and insight into RecOR function” (eLife, 2015).

Molecular target: T1, RecO (UniProt P0A7H3 1-242)
T1 construct: RecO recombination mediator protein; source: purified as previously described (Kantake et al., 2002)
T1 sequence (looked up): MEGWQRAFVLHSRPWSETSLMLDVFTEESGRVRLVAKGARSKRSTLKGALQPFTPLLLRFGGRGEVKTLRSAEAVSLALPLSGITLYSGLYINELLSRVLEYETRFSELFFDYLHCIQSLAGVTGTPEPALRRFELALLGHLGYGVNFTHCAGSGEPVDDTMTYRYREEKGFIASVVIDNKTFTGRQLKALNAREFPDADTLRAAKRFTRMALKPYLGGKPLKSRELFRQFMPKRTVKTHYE
Experiment: magnetic tweezers force spectroscopy; single tethered ssDNA; added in turn: 100 mM NaOAc and 1 mM Mg(OAc)2, 200 nM SSB, 100 nM RecO, 1 μM RecR; 20 mM TrisOAc pH 8.0, 50 mM DTT; 25°C
Settings: both partners purified

binding result: binds
B1: RecR (natural protein, UniProt P0A7H6 1-201, looked up)
chain: MQTSPLLTQLMEALRCLPGVGPKSAQRMAFTLLQRDRSGGMRLAQALTRAMSEIGHCADCRTFTEQEVCNICSNPRRQENGQICVVESPADIYAIEQTGQFSGRYFVLMGHLSPLDGIGPDDIGLDRLEQRLAEEKITEVILATNPTVEGEATANYIAELCAQYDVEASRIAHGVPVGGELEMVDGTTLSHSLAGRHKIRF
notes: RecR recombination protein; It cites other work for RecR dimers/tetramers; source: purified as previously described (Kantake et al., 2002)
